# Target: MBP-SCC1 (aa 100-320) with C-terminal tetracysteine motif, FlAsH-labelled (human) (UniProt O60216)
# Assay: fluorescence polarisation
# Chain of MBP-SCC1 (aa 100-320) with C-terminal tetracysteine motif, FlAsH-labelled (human) (O60216 100-320): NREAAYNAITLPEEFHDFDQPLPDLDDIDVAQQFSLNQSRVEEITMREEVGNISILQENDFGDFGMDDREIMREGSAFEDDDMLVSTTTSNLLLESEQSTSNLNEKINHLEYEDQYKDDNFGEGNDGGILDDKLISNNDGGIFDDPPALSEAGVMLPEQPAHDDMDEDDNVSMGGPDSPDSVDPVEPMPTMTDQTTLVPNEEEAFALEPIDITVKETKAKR
substance,measurement,value
"inactive apo-separase (separase^C2029S), Q14674 1-2120",fold lower Kd than for SCC1^350–550,3 fold

# Reference: paper doi:10.1101/2025.03.24.644901
